Results on seven molecules are retold here after patent publication US20030007968A1, “Methods of inducing organ transplant tolerance and correcting hemoglobinopathies” (priority 2001, published 2003).

The target in data set [1] is T1, CD86Ig (Homo sapiens, UniProt P42081).
T1 construct: Ig (immunoglobulin fusion partner)
Put plainly: BIAcore surface plasmon resonance equilibrium and kinetic binding to immobilized CD86Ig. The conditions noted are these: for slower “off” rate than wild type CTLA4Ig: screening of COS culture media samples over immobilized CD86Ig; for koff / kon: immobilized CD86Ig, means±standard deviation from three experiments. From the text:
(§1) To synthesize and screen soluble CTLA4 mutant molecules with altered affinities for a B7 molecule (e.g. CD80, CD86), a two-step strategy was adopted. The experiments entailed first generating a library of mutations at a specific codon of an extracellular portion of CTLA4 and then screening these by BIAcore analysis to identify mutants with altered reactivity to B7. The Biacore assay system (Pharmacia, Piscataway, N.J.) uses a surface plasmon resonance detector system that essentially involves covalent binding of either CD80Ig or CD86Ig to a dextran-coated sensor chip which is located in a detector. The test molecule can then be injected into the chamber containing the sensor chip and the amount of complementary protein that binds can be assessed based on the change in molecular mass which is physically associated with the dextran-coated side of the sensor chip; the change in molecular mass can be measured by the detector system.
(§2) COS cells were transfected with individual miniprep purified plasmid DNA and propagated for several days. Three day conditioned culture media was applied to BIAcore biosensor chips (Pharmacia Biotech AB, Uppsala, Sweden) coated with soluble CD80Ig or CD86Ig. The specific binding and dissociation of mutant proteins was measured by surface plasmon resonance (O'Shannessy, D. J., et al., 1997 Anal. Biochem. 212:457-468). All experiments were run on BIAcore™ or BIAcore™ 2000 biosensors at 25° C. Ligands were immobilized on research grade NCM5 sensor chips (Pharmacia) using standard N-ethyl-N′-(dimethylaminopropyl) carbodiimidN-hydroxysuccinimide coupling (Johnsson, B., et al. (1991) Anal. Biochem. 198: 268-277; Khilko, S. N., et al.(1993) J. Biol. Chem 268:5425-15434).
(§3) BIAcore analysis conditions and equilibrium binding data analysis were performed as described in J. Greene et al. 1996 J. Biol. Chem. 271:26762-26771 and in U.S. patent application Ser. Nos. 09/579,927, and 60/214,065 which are herein incorporated by reference.
(§4) Senosorgram baselines were normalized to zero response units (RU) prior to analysis. Samples were run over mock-derivatized flow cells to determine background RU values due to bulk refractive index differences between solutions. Equilibrium dissociation constants (Kd) were calculated from plots of Req versus C, where Req is the steady-state response minus the response on a mock-derivatized chip, and C is the molar concentration of analyte. Binding curves were analyzed using commercial nonlinear curve-fitting software (Prism, GraphPAD Software).
(§5) Experimental data were first fit to a model for a single ligand binding to a single receptor (1-site model, i.e., a simple langmuir system, A+B AB), and equilibrium […] constants (Kd=[A]·[B]\[AB]) were calculated from the equation R=Rmax·C/(Kd+C). Subsequently, data were fit to the simplest two-site model of ligand binding (i.e., to a receptor having two non-interacting independent binding sites as described by the equation R=Rmax1·C\(Kd1+C)+Rmax2·C\(Kd2+C).
(§6) The goodness-of-fits of these two models were analyzed visually by comparison with experimental data and statistically by an F test of the sums-of-squares.
(§7) Association and disassociation analyses were performed using BIA evaluation 2.1 Software Pharmacia). Association rate constants kon were calculated in two ways, assuming both homogenous single-site interactions and parallel two-site interactions. For single-site interactions, kon values were calculated according to the equation Rt=Req(1−exp^−ks(t-t0), where Rt is a response at a given time, t; Req is the steady-state response; to is the time at the start of the injection; and ks=dR/dt=kon·Ckoff, where C is a concentration of analyte, calculated in terms of monomeric binding sites. For two-site interactions kon values were calculated according to the equation Rt=Req1(1−exp^−ks1(t-t0)+Req2(1−exp^ks2(t-t0). For each model, the values of kon were determined from the calculated slope (to about 70% maximal association) of plots of ks versus C. […]

Data set [2] deals with C57BL/6 (B6) recipient mice. Briefly: Congenic T cell-depleted bone marrow transplant after single busulfan dose, donor chimerism by flow cytometry. Type of data set: in vivo, mouse. As to conditions: busulfan 0, 10, 20, 30 mg/kg i.p. one day before 2×10^7 congenic T cell-depleted bone marrow cells. As to the method: Bone marrow preparation and treatment regimens.
Similar results were achieved when the busulfan was administered six or twelve hours before the administration of the T cell-depleted bone marrow cells.
(Flow cytometry measures light scatter and fluorescence of single cells or particles in a stream.)

For data set [3] the following is noted: with marrow rescue; cited from earlier work.
The target in data set [4] is T2, CD80Ig (Homo sapiens, UniProt P33681).
T2 construct: Ig (immunoglobulin fusion partner)
T2 sequence (P33681 with tags, fused parts or gaps limits assumed): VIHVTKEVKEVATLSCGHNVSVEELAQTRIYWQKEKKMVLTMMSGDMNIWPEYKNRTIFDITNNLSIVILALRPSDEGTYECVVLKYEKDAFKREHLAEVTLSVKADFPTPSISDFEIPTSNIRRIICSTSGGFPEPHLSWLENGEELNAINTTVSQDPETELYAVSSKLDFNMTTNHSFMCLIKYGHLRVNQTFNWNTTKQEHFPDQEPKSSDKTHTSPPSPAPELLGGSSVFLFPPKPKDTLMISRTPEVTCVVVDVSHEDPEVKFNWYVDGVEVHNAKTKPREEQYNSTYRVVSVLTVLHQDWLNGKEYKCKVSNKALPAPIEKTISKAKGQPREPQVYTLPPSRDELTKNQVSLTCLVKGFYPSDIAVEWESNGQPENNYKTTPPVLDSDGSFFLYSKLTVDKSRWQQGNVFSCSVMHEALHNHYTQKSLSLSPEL
Briefly: BIAcore surface plasmon resonance equilibrium and kinetic binding to immobilized CD80Ig. The conditions noted are these: for koff / kon: immobilized CD80Ig, means±standard deviation from three experiments.
Description: as §1, §2, §3, §4, §5, §6, §7

For data set [5], the target named is T3, CD86Ig (UniProt P42081 24-247, limits assumed).
T3 construct: Immobilized on the BIAcore chip by amine coupling; also called soluble CD86Ig
T3 sequence (looked up): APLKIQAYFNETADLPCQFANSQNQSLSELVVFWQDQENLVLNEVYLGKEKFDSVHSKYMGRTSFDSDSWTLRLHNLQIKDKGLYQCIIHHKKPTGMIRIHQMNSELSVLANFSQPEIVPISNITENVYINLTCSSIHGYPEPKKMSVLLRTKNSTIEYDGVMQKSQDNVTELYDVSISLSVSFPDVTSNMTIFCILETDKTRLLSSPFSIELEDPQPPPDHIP
Put plainly: SPR (BIAcore), equilibrium, CD86Ig immobilized, purified monomeric analyte. Background: Surface plasmon resonance follows binding to a sensor surface in real time, without labels.

Data set [6] addresses T4, CD80Ig (UniProt P33681 35-242, limits assumed).
T4 construct: Immobilized on the BIAcore chip by amine coupling; also called soluble CD80Ig
T4 sequence (looked up): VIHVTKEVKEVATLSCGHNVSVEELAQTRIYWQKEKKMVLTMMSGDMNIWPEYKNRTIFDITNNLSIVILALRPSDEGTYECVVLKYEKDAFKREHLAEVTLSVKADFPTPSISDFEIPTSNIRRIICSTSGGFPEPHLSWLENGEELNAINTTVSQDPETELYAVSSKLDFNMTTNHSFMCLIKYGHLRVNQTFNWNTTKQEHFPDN
Briefly: SPR (BIAcore), equilibrium, CD80Ig immobilized, purified monomeric analyte.

In data set [7] the target is T4, CD80Ig. Put plainly: SPR (BIAcore), CD80Ig immobilized, purified monomeric analyte.
The target in data set [8] is T4, CD80Ig. Put plainly: SPR, immobilized CD80Ig.
Data set [9] concerns the target T3, CD86Ig. Put plainly: SPR, immobilized CD86Ig, monomer against dimer (L104EA29YIg).
For data set [10], the target named is T3, CD86Ig. Briefly: SPR (BIAcore), CD86Ig immobilized, purified monomeric analyte.
Data set [11] concerns the target T3, CD86Ig. Put plainly: SPR, immobilized CD86Ig.

T1 sequence (P42081 with tags, fused parts or gaps limits assumed): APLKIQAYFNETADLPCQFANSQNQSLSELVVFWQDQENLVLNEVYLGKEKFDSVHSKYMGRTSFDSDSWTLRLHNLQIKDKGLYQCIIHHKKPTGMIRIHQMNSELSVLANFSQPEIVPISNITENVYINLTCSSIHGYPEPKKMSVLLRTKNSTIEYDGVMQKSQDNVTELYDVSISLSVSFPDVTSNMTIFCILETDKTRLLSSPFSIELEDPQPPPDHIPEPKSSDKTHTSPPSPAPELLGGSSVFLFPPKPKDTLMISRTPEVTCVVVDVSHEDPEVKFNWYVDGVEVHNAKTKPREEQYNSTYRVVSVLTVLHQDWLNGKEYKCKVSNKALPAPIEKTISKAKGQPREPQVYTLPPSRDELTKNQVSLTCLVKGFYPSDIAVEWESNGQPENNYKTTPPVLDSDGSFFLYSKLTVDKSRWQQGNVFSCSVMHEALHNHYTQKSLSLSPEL

As for “L104EA29TIg: double-site CTLA4 mutant Ig fusion, L104E and alanine +29 to threonine”, in the data set with CD86Ig [1], the “slower “off” rate than wild type CTLA4Ig” value is “approximately 4 fold”.

As to `CS(=O)(=O)OCCCCOS(C)(=O)=O` [busulfan], in [2], the “levels of donor hematopoietic chimerism versus dose” value is “directly proportional to the administered busulfan dose”. Also, the LD50 in data set [3] was 136 mg/kg.

In the case of “L104EA29LIg: double-site CTLA4 mutant Ig fusion, L104E and alanine +29 to leucine”, the “slower “off” rate than wild type CTLA4Ig” value with CD86Ig [1] is given as “approximately 4 fold”.

With “CTLA4XC120S: single chain (monomeric) CTLA4 extracellular domain with cysteine 120 to serine mutation [reference compound]”, in the data set with CD86Ig [1], the koff is given as 840 ± 55 (× 10^−3) S^−1 and the kon was 16.5 ± 0.5 (× 10^5) M^−1 S^−1. Besides, in the data set with CD80Ig [4], the koff was 230 ± 10 (× 10^−3) S^−1 and the kon is listed as 12.0 ± 1.0 (× 10^5) M^−1 S^−1.

On to “L104EA29WIg: double-site CTLA4 mutant Ig fusion, L104E and alanine +29 to tryptophan”, for which, in the data set with CD86Ig [1], the “slower “off” rate than wild type CTLA4Ig” value is “approximately 4 fold”.

B1: L104EA29YXC120S (receptor)
chain: MHVAQPAVVLASSRGIASFVCEYASPGKYTEVRVTVLRQADSQVTEVCAATYMMGNELTFLDDSICTGTSSGNQVNLTIQGLRAMDTGLYICKVELMYPPPYYEGIGNGTQIYVIDPEPSPDSD
notes: it was 'prepared in an identical manner' to CTLA4XC120S; also called monomeric L104EA29Y extracellular domain
For B1, the values for the Kd with CD86Ig [5] and in the data set with CD80Ig [6] were 267 nM and 85 nM, respectively. For the same molecule, the values for the koff with CD80Ig [7] and in the data set with CD86Ig [10] were 0.071 s⁻¹ and 0.3 s⁻¹, respectively. The values for the kon with CD80Ig [7] and with CD86Ig [10] were 830000 M⁻¹ s⁻¹ and 1.14e+06 M⁻¹ s⁻¹, respectively. In addition, the “fold higher affinity than CTLA4XC120S” value in the data set with CD80Ig [8] and in the data set with CD86Ig [11] was approximately 2 fold each time. The “fold slower rate of dissociation than CTLA4XC120S” value with CD80Ig [8] and with CD86Ig [11] was approximately 3 fold each time. Moreover, the “fold lower binding affinity than the respective dimer” value in the data set with CD86Ig [9] was in the range of 35 to 80 fold.

B2: L104EA29YXC120S: single chain (monomeric) L104EA29Y extracellular domain with cysteine 120 to serine mutation (protein)
chain: MHVAQPAVVLASSRGIASFVCEYASPGKYTEVRVTVLRQADSQVTEVCAATYMMGNELTFLDDSICTGTSSGNQVNLTIQGLRAMDTGLYICKVELMYPPPYYEGIGNGTQIYVIDPEPSPDSD
As to B2, in the data set with CD86Ig [1], the koff is recorded as 300 ± 10 (× 10^−3) S^−1 and the kon is 11.4 ± 1.6 (× 10^5) M^−1 S^−1. For the same molecule, in the data set with CD86Ig [1] (monomeric proteins), the “higher affinity than CTLA4XC120S to CD86Ig” value is “approximately 2 fold” and the “slower rate of dissociation from CD86Ig than CTLA4XC120S” value is given as “approximately 3 fold”. For the same molecule, in the data set with CD80Ig [4], the koff was 71 ± 5 (× 10^−3) S^−1 and the kon is 8.3 ± 0.26 (× 10^5) M^−1 S^−1. Besides, in the data set with CD80Ig [4] (monomeric proteins), the “higher affinity than CTLA4XC120S to CD80Ig” value was “approximately 2 fold” and the “slower rate of dissociation from CD80Ig than CTLA4XC120S” value was “approximately 3 fold”.

By LD50 is commonly meant the dose expected to kill half of the subjects tested. The term Kd denotes the constant that tells how readily two partners part at equilibrium. A higher Kd goes with a looser complex.
